Assay results: patent US20210071139A1

Columns and labels:
[1] = molecular target: Dync1li1 (UniProt Q8R1Q8); experiment: TOX IP-MS, EL4 nuclear extract, MiST
[2] = molecular target: Rbm34 (UniProt Q8C5L7); experiment: TOX IP-MS, EL4 nuclear extract, MiST
[3] = molecular target: Eif5b (UniProt Q05D44); experiment: anti-TOX IP from EL4 nuclear extract, LC-MS/MS, MiST
[4] = molecular target: Dap3 (UniProt Q9ER88); experiment: as above
[5] = molecular target: Tpm4 (UniProt Q6IRU2); experiment: as above
[6] = molecular target: Utp18 (UniProt Q5SSI6); experiment: as above
Chain of Utp18 (Q5SSI6 whole entry): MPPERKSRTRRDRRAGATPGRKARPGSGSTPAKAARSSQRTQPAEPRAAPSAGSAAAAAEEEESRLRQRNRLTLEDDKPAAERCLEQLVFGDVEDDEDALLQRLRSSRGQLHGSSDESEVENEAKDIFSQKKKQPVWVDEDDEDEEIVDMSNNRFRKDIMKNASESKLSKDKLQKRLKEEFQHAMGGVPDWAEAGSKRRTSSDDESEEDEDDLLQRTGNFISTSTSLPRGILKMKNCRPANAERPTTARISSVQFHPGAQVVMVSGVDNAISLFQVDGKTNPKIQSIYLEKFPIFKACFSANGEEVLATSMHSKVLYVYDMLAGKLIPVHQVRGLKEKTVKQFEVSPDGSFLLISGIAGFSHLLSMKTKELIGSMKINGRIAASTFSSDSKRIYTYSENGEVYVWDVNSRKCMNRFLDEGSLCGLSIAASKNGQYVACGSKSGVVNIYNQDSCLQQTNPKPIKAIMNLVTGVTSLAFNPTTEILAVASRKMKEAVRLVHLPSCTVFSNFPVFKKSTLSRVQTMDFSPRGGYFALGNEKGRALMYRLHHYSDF

[7] = molecular target: Trim21 (UniProt Q62191); experiment: as above
[8] = molecular target: Sltm (UniProt Q8CH25); experiment: as above
[9] = molecular target: Anln (UniProt Q8K298); experiment: as above
[10] = molecular target: Thoc2 (UniProt B1AZI6); experiment: as above
[11] = molecular target: Ddx55 (UniProt Q6ZPL9); experiment: as above
[12] = molecular target: Dhx30 (UniProt Q99PU8); experiment: as above
[13] = molecular target: Hs2st1 (UniProt Q8R3H7); experiment: as above
[14] = molecular target: Pml (UniProt Q60953); experiment: as above
[15] = molecular target: Cd2ap (UniProt Q9JLQ0); experiment: as above
[16] = molecular target: Mars (UniProt Q68FL6); experiment: as above
[17] = molecular target: Metap2 (UniProt O08663); experiment: as above
[18] = molecular target: Myo6 (UniProt Q64331); experiment: as above
Chain of Myo6 (Q64331 whole entry): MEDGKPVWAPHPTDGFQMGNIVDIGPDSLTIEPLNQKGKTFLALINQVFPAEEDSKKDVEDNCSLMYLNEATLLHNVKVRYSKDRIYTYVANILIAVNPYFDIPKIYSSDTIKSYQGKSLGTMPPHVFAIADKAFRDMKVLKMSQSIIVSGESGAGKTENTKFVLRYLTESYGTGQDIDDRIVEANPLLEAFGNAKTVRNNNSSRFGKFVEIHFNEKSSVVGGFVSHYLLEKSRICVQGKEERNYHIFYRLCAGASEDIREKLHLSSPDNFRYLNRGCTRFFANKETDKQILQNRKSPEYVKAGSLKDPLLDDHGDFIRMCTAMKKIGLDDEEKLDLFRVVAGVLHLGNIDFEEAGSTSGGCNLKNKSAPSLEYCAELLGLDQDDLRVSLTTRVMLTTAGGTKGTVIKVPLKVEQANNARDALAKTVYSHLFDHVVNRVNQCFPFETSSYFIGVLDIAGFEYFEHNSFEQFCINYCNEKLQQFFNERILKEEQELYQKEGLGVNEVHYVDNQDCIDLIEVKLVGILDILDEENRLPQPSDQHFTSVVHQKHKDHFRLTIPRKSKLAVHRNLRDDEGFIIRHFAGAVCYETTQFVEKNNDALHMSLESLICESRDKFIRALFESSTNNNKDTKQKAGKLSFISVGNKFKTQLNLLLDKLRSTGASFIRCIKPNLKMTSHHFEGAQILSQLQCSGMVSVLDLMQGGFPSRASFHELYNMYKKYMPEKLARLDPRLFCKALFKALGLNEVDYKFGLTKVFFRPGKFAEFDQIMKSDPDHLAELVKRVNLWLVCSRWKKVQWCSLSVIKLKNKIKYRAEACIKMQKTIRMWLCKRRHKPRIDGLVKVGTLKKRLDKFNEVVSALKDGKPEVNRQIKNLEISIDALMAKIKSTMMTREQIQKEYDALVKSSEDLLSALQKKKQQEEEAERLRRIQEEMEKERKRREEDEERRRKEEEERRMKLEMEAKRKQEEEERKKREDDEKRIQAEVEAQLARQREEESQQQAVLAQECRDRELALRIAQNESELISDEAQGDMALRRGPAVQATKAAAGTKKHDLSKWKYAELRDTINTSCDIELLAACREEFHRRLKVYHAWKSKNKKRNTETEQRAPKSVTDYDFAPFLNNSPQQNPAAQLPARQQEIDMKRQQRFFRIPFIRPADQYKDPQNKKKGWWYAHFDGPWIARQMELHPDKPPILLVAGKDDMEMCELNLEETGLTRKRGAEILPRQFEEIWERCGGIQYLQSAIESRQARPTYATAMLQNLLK

[19] = molecular target: Snrpb2 (UniProt Q9CQI7); experiment: as above
Chain of Snrpb2 (Q9CQI7 whole entry): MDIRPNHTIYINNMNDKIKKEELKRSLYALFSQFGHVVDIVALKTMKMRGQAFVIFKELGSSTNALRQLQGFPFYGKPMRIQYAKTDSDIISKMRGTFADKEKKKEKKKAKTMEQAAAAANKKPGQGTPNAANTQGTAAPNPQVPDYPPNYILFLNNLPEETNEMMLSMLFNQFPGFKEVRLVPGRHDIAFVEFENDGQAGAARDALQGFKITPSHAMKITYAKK

[20] = molecular target: Rrp1b (UniProt Q91YK2); experiment: as above
[21] = molecular target: Ash2l (UniProt Q91X20); experiment: as above
[22] = molecular target: Ptcd3 (UniProt Q14C51); experiment: as above
Chain of Ptcd3 (Q14C51 11-685 limits assumed): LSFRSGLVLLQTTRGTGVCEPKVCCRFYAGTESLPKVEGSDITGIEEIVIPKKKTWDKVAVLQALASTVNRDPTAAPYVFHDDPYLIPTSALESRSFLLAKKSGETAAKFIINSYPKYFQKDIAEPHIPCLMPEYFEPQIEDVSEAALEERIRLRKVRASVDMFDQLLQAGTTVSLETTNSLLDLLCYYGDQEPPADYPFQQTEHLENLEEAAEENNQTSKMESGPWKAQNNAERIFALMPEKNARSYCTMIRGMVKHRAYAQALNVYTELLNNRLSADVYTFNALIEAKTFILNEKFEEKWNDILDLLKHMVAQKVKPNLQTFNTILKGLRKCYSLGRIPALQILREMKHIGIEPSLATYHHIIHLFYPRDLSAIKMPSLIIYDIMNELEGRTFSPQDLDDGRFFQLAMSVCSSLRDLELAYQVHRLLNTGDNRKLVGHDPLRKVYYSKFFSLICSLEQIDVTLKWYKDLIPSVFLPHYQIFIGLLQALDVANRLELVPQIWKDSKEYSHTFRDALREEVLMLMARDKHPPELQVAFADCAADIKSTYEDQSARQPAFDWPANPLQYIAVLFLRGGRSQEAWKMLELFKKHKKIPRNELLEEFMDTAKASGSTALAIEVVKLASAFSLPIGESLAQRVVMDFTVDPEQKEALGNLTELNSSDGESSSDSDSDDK

[23] = molecular target: Ing2 (UniProt Q9ESK4); experiment: as above
[24] = molecular target: Larp7 (UniProt Q05CL8); experiment: as above
Chain of Larp7 (Q05CL8 whole entry): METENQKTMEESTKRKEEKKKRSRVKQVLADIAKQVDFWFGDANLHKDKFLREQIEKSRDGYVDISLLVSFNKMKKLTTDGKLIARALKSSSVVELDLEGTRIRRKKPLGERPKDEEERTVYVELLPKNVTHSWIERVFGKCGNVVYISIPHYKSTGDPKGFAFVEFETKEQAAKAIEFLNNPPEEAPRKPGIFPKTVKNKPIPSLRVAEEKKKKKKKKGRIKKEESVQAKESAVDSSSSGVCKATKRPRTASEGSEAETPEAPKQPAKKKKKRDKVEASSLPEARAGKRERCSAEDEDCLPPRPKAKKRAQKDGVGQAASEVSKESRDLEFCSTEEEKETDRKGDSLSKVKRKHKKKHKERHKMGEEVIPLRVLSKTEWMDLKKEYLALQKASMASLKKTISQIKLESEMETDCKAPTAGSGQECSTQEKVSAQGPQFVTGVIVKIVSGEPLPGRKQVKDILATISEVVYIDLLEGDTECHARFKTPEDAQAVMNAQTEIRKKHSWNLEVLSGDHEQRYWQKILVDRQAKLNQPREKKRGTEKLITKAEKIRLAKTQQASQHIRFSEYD

[25] = molecular target: Dido1 (UniProt Q8C9B9); experiment: as above
[26] = molecular target: Safb; Safb2; mKIAA0138; experiment: as above

Chain of Eif5b (Q05D44 whole entry): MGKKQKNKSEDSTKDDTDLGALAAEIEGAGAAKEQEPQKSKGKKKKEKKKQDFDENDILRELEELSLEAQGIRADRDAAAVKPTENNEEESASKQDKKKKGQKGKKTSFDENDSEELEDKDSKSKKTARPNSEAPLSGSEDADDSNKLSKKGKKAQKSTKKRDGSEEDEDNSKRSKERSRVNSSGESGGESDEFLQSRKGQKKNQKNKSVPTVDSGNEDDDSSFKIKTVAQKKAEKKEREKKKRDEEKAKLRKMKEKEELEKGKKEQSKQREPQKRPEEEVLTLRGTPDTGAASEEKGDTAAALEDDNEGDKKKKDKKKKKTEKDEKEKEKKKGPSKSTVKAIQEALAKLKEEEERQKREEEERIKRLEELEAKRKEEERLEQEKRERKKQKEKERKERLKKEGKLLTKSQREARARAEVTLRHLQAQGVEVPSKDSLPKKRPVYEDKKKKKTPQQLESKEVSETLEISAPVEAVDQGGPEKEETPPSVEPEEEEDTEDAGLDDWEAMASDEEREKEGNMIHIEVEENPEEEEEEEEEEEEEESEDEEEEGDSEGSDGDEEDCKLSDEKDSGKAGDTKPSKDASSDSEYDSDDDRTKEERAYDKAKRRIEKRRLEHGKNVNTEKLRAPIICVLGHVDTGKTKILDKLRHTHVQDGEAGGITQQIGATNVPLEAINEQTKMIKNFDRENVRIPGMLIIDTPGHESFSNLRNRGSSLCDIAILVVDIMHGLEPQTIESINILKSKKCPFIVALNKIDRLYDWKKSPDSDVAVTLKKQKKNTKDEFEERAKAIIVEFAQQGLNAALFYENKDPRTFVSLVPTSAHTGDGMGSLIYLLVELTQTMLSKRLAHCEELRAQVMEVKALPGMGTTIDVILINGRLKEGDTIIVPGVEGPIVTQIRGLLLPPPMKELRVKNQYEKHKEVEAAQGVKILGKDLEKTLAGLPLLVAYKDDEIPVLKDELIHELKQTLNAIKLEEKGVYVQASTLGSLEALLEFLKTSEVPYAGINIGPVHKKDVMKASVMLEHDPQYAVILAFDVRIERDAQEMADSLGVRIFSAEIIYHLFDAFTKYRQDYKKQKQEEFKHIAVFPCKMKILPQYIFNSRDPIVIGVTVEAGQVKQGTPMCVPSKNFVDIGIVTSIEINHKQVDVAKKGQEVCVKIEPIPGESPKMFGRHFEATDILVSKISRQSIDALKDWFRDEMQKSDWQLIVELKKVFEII
Chain of TOX (Q66JW3 whole entry): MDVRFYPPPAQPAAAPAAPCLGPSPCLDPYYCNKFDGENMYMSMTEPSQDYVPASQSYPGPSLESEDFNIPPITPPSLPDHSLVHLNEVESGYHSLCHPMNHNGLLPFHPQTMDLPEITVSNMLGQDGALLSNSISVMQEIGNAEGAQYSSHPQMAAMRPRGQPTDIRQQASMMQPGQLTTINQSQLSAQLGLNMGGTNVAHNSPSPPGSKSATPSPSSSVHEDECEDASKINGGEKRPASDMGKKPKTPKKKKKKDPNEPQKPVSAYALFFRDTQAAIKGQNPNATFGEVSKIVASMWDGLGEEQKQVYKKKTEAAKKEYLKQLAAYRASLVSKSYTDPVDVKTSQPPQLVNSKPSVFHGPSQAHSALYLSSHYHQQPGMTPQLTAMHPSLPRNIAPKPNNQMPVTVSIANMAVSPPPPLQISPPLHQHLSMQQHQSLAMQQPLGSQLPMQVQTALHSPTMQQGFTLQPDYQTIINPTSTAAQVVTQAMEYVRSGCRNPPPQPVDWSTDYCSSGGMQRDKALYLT

Tox (from UniProt Q66JW3 1-526)
Abundance [1]: 5.91e-06
MiST Score [1]: 0.976
Reproducibility [1]: 0.941
Specificity [1]: 1
Abundance [2]: 4.09e-05
MiST Score [2]: 0.962
Reproducibility [2]: 0.895
Specificity [2]: 1

TOX (from UniProt Q66JW3 1-526)
Abundance [3]: 7.46e-06
MiST Score [3]: 0.878
Reproducibility [3]: 0.771
Specificity [3]: 0.933
Abundance [4]: 2.69e-06
MiST Score [4]: 0.859
Reproducibility [4]: 0.561
Specificity [4]: 1
Abundance [5]: 0.000138
MiST Score [5]: 0.859
Reproducibility [5]: 0.979
Specificity [5]: 0.812
Abundance [6]: 1.83e-05
MiST Score [6]: 0.865
Reproducibility [6]: 0.582
Specificity [6]: 1
Abundance [7]: 4.56e-06
MiST Score [7]: 0.858
Reproducibility [7]: 0.56
Specificity [7]: 1
Abundance [8]: 2.12e-06
MiST Score [8]: 0.864
Reproducibility [8]: 0.988
Specificity [8]: 0.816
Abundance [9]: 4.57e-07
MiST Score [9]: 0.861
Reproducibility [9]: 0.567
Specificity [9]: 1
Abundance [10]: 1.6e-06
MiST Score [10]: 0.859
Reproducibility [10]: 0.9
Specificity [10]: 0.848
Abundance [11]: 2.21e-06
MiST Score [11]: 0.863
Reproducibility [11]: 0.574
Specificity [11]: 1
Abundance [12]: 2.07e-06
MiST Score [12]: 0.89
Reproducibility [12]: 0.892
Specificity [12]: 0.897
Abundance [13]: 6.47e-06
MiST Score [13]: 0.879
Reproducibility [13]: 0.628
Specificity [13]: 1
Abundance [14]: 8.97e-06
MiST Score [14]: 0.858
Reproducibility [14]: 0.557
Specificity [14]: 1
Abundance [15]: 5.85e-07
MiST Score [15]: 0.879
Reproducibility [15]: 0.628
Specificity [15]: 1
Abundance [16]: 3.23e-07
MiST Score [16]: 0.877
Reproducibility [16]: 0.619
Specificity [16]: 1
Abundance [17]: 1.54e-05
MiST Score [17]: 0.881
Reproducibility [17]: 0.927
Specificity [17]: 0.868
Abundance [18]: 5.25e-07
MiST Score [18]: 0.88
Reproducibility [18]: 0.63
Specificity [18]: 1
Abundance [19]: 7.46e-05
MiST Score [19]: 0.858
Reproducibility [19]: 0.558
Specificity [19]: 1
Abundance [20]: 4.86e-06
MiST Score [20]: 0.875
Reproducibility [20]: 0.955
Specificity [20]: 0.847
Abundance [21]: 4.44e-06
MiST Score [21]: 0.879
Reproducibility [21]: 0.629
Specificity [21]: 1
Abundance [22]: 1.85e-06
MiST Score [22]: 0.88
Reproducibility [22]: 0.631
Specificity [22]: 1
Abundance [23]: 2.44e-05
MiST Score [23]: 0.878
Reproducibility [23]: 0.625
Specificity [23]: 1
Abundance [24]: 9.12e-06
MiST Score [24]: 0.859
Reproducibility [24]: 0.896
Specificity [24]: 0.849
Abundance [25]: 3.41e-07
MiST Score [25]: 0.878
Reproducibility [25]: 0.624
Specificity [25]: 1
Abundance [26]: 3.18e-06
MiST Score [26]: 0.873
Reproducibility [26]: 0.609
Specificity [26]: 1
